In paper PMC4858972, “Structural and Biochemical Characterization of the Early and Late Enzymes in the Lignin β-Aryl Ether Cleavage Pathway from Sphingobium sp. SYK-6” (The Journal of Biological Chemistry, 2016):

How the values were obtained:
[1] = substrate: COc1cc([C@H](O)[C@@H](CO)Oc2ccccc2OC)ccc1O; test: purified protein; assay type: biochemical, Sphingobium sp. SYK-6; conditions: 5 mM NAD+, pH 9.0, 30 °C
[2] = substrate: COc1cc([C@H](O)[C@H](CO)Oc2ccccc2OC)ccc1O; test: purified protein; assay type: biochemical, Sphingobium sp. SYK-6; conditions: 5 mM NAD+, pH 9.0, 30 °C

B1: LigL (Sphingobium sp. SYK-6) (protein)
chain: MDIAGTTAFITGGASGIGFGIAQRLLANGARLVLADIRQDHLDEARQFFEERQQGRNVHTIRLDVSDRAQMAEAARECEAVMGGPDILINNAGIDPSGPFKDATYQDWDYGLAINLMGPINGIMAFTPGMRARGRGGHIVNTASLAGLTPMPSFMAIYATAKAAVITLTETIRDSMAEDNIGVTVLMPGPIKSRIHESGQNRPERFRAGSGLAETEQQLAKRVVADNWMEPTEVGDMIVDAIVHNKLYVSTHGNWRETCEARFQALLDSMPEARPFDFGASLAVPKEEA
notes: synthetic gene in pCPD, C-terminal V. cholerae MARTX cysteine protease domain (CPD)-His tag self-cleaved after a Leu, expressed in E. coli (NEB Express), biological dimer
[1]
  Km: 20.3 ± 3.2 µM
  Vmax: 21.8 µmol/min/mg
  kcat: 4.9 ± 0.3 s⁻¹
  kcat/Km: 240000 ± 41000 M⁻¹ s⁻¹
[2]
  Km: 10.9 ± 0.8 µM
  Vmax: 33.7 µmol/min/mg
  kcat: 7.5 ± 0.1 s⁻¹
  kcat/Km: 688000 ± 53000 M⁻¹ s⁻¹
